Measurements published in patent US20260275312, “CRISPR NUCLEASE POLYPEPTIDES AND GENE EDITING SYSTEMS COMPRISING SUCH” (ARBOR BIOTECHNOLOGIES, INC., published 2026).
Positions count from the first letter of the chain named.

Legend:
[1] = target: T1, Nuclease S H280R/T72R/I845R (synthetic construct, H280R,T72R,I845R); assay: cell_activity; HEK293T; PAM AACC; conditions: tags: N-term SV40 NLS, XTEN linker + C-term nucleoplasmin NLS
T1 chain: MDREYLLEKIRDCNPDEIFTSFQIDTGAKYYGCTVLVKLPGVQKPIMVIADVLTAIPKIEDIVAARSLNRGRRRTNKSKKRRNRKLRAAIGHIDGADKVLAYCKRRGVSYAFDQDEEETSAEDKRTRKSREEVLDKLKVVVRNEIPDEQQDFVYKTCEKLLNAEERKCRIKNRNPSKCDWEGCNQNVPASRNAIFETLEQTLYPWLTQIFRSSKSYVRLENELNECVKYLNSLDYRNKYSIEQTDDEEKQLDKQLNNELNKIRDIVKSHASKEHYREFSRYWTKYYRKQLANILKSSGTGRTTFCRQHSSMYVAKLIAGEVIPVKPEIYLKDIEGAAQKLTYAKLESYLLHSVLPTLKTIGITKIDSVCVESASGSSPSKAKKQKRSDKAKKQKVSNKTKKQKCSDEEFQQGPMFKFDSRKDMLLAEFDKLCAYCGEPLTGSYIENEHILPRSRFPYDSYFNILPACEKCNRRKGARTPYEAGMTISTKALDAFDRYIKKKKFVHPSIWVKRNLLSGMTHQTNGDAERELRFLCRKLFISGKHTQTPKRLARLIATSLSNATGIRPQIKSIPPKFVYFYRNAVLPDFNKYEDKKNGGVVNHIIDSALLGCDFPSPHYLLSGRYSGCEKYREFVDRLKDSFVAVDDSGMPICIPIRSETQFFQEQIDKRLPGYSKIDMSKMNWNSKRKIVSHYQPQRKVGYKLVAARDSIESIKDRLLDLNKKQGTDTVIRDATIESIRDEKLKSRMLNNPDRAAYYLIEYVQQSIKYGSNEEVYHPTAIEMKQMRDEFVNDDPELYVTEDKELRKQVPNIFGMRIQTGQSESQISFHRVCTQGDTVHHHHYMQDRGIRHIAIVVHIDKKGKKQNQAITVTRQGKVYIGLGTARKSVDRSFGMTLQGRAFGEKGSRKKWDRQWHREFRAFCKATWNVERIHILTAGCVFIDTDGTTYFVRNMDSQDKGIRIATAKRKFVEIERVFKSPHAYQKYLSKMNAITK
Description: (§1) HEK293T cells were transfected with plasmids expressing the Nuclease S polypeptides and the gRNAs provided herein following the methods provided in Example 1 above. Gene editing efficiencies were determined by NGS following the methods also provided in Example 1. The NGS results were analyzed also following the methods provided in Example 1 above.
(§2) Each Nuclease S variant was cloned as described in Example 6. HEK293T cells were further transfected with a plasmid encoding a Nuclease S variant and a plasmid encoding an RNA guide of Table 11, followed by NGS analysis, as described in Example 5. For each target, indel ratios, referring to the percentage of NGS reads comprising indels, were calculated for the reference Nuclease S (SEQ ID NO: 49) and for each Nuclease S variant. The indel ratios shown in Table 13 were calculated as the average of two bioreplicates, each of which contained two technical replicates.

[2] = target: T2, Nuclease S W509R/T72R/I845R (synthetic construct, W509R,T72R,I845R); assay: cell_activity; HEK293T; PAM AACC; conditions: tags: N-term SV40 NLS, XTEN linker + C-term nucleoplasmin NLS
T2 chain: T1 chain with R280H, W509R
Description: as §1, §2

B1: S AAVS1-T7 RNA guide ; AAVS1-T7 target (S) (ssRNA ; dsDNA)
RNA: GGCUAUAAUCCAUGCUGACCGUUGUAUUCGGAUGGGAGUAAAAGGUUGAGUACACCUGGAAACAAAACGACAUAAAGGUGUUCUCCCAUCUGUGUACAAAGAGCAGAUAUAUGAGUUGAUAAGUAAUAUGUUGCACGUAUGGACUUUGACAGUCUGUACCUCUGCGUGAAAGACAUAUUGCGUUAUUCAUAUAUCUGUGAGUCUGUUCUAAAUUUAAAGGUUUAGGGAA
DNA 1: GGCTATAATCCATGCTGACC
DNA 2: GGTCAGCATGGATTATAGCC
Work on B1 yielded an activity [1] of 0.333 indel ratio and an activity [2] of 0.305 indel ratio.
